Measured values from the supplement of paper PMC9170038.

Test system: MS2 coat protein
Assay: apparent KD of MS2 coat protein; designed switch direction (-1 OFF switch, 1 ON switch): -1; higher = weaker reporter binding
Summary of the method: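 Three titration conditions were used: no input, 200 uM small-molecule ligand, and an oligonucleotide input. In each, SNAP-549-labelled MS2 coat protein was raised from 0.7 or 1.5 nM, doubling, to 3 µM over designed RNA switches transcribed on Illumina chips by stalled E. coli RNA polymerase. Curve fits of normalised cluster fluorescence gave values whose per-design median over clusters is the apparent KD.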

[1] = input ligand: microRNA oligo, concentration not stated
[2] = Eterna round: R95, input ligand: FMN 200 uM
[3] = Eterna round: R95, input ligand: microRNA oligo, concentration not stated
[4] = Eterna round: R95, input ligand: none

Question: Which “apparent KD of MS2 coat protein” value [1] does the source give for “GUCUUCAUGACAUGAGGAUCACCCAUGUGUUAUAUUUUUACUAAGGAUAUAUUUUUAAUGUUGAGAUAGAAGGUAGUUUCGGUC [JR_ExcNG3_Sub092] (Eterna round: R96, puzzle: Exclusion NG 3)” here?
Answer: 79.1 nM

Question: Which “apparent KD of MS2 coat protein” value (input ligand: FMN 200 uM) does the source give for “GUCUUGAUAGGAUAUACAUGAGGAUCACCCAUGUCCCACCCGUUACCUCUGACCCUAUGUAGAAGGAUCGUUUG [Exy#17] (Eterna round: R97, puzzle: Exclusion 3)” here?
Answer: 34.3 nM

Question: And the “apparent KD of MS2 coat protein” value (input ligand: none)?
Answer: 48.3 nM

Question: How did the “apparent KD of MS2 coat protein” value [2] turn out when “GUGAAACAUGAGGAUCACCCAUGUGAGGAUAUGAUUAAGUAAUGAUGAAAGUAUAUAUUCAGAAGGCACAAUGG [Mat - Mod of JL D73] (puzzle: Exclusion 1)” was run?
Answer: 132 nM

Question: And the “apparent KD of MS2 coat protein” value [3]?
Answer: 83.3 nM

Question: What about the “apparent KD of MS2 coat protein” value [4] of the same sequence?
Answer: 152 nM

Question: How did the “apparent KD of MS2 coat protein” value [3] turn out when “GUGAAACAUGAGGAUCACCCAUGUGAGGAUAUGUUUUAGUACUGCUGACAGUACAUCUAUAGAAGGCACAAUGG [JL-ex1-02] (puzzle: Exclusion 1)” was run?
Answer: 33.7 nM

Question: “GUGAACGGAGGAUAUAUAUGGGCAGCAUACGCUGCAGCUUCACAUGAGGAUCACCCAUGUAGAAGGCUGUACAC [Mat - Exclusion 2 - Mod of Hyphema - D101] (puzzle: Exclusion 2)” was tested. Which “apparent KD of MS2 coat protein” value [3] did it give?
Answer: 8.26 nM

Question: What does the source list for “GUGAAGUGAGGAUAUAUGAGAGAGGCUGAACCGGACGAGAAGUAGAAGGCACAUGAGGAUCACCCAUGUAAGGG [JR_Exclu4_Sub024] (puzzle: Exclusion 4)”?
Answer: apparent KD of MS2 coat protein [2]: 293 nM; apparent KD of MS2 coat protein [3]: 255 nM; apparent KD of MS2 coat protein [4]: 372 nM

Question: How did the “apparent KD of MS2 coat protein” value (input ligand: FMN 200 uM) turn out when “GUGACUGAUGUCAGGAUAUCCGGUGCUAAAGUACAGGAGAAGGGACAUGAGGAUCACCCAUGUAACUUAGCCAG [BmEX4 B.7] (Eterna round: R97, puzzle: Brourd's mod of Exclusion 4)” was run?
Answer: 23.2 nM

Question: What about the “apparent KD of MS2 coat protein” value (input ligand: none) of the same sequence?
Answer: 15.4 nM

Question: “GUGAGAUAGUUAGUGGACGACAUGAGGAUCACCCAUGUGAGGGAAAUGUUGAGGAGAAAGCUUUUUGCUCGUCUUUA [JR_SV3TOV1_Sub036] (puzzle: Sensor v3, turn-off variant 1)” was tested. Which “apparent KD of MS2 coat protein” value [2] did it give?
Answer: 90.8 nM

Question: What about the “apparent KD of MS2 coat protein” value [3] of the same sequence?
Answer: 87.4 nM

Question: What about the “apparent KD of MS2 coat protein” value [4] of the same sequence?
Answer: 119 nM

Question: For “GUGAGCAGACGGAGAUCCUACAUGAGGAUCACCCAUGUCUCACUAGCUUUUUGCUCGUCUUAUCCUCCUCUGUUCUC [Elimod 25 - Jieux - Sensor, turn-off variant 1] (Eterna round: R97, puzzle: Sensor, turn-off variant 1)”, which “apparent KD of MS2 coat protein” value (input ligand: FMN 200 uM) is on record?
Answer: 176 nM

Question: And the “apparent KD of MS2 coat protein” value (input ligand: none)?
Answer: 201 nM

Question: What does the source list for “GUGAGGCCAGUGAGGAUAUGUGUACAACUACGUGCAUAGAAGGCACAUGAGGAUCACCCAUGUGAAUUCCCAGG [Eternabot (L1) Solution 65] (Eterna round: R97, puzzle: Brourd's mod of Exclusion 4)”?
Answer: apparent KD of MS2 coat protein (input ligand: FMN 200 uM): 14.7 nM; apparent KD of MS2 coat protein (input ligand: none): 14.4 nM

Question: Which “apparent KD of MS2 coat protein” value [3] does the source give for “GUGAGGUAAGGAUAUAGUAGUGAAGGUAAAAUAUGAGAAUGCUAGAAGGUACAUGAGGAUCACCCAUGUUAGGG [JR_Exclu4_Sub088] (puzzle: Exclusion 4)” here?
Answer: 146 nM

Question: With “GUGAUACAUGAGGAUCACCCAUGUCAGGAUAUGAUACUAUGUACUUCGGUACAUAGUAUCAGAAGGGACAGUGA [Ex1-3: 4] (puzzle: Exclusion 1)” as the sequence, how does the “apparent KD of MS2 coat protein” value [3] read?
Answer: 125 nM

Question: What does the source list for “GUGCAACAUGAGGAUCACCCAUGUCAGGAUAUGCGAAUUUCAUCAAAAGAUGAAAUUUGCAGAAGGGACUAUAC [Omei Ex1 A22] (Eterna round: R97, puzzle: Exclusion 1)”?
Answer: apparent KD of MS2 coat protein (input ligand: FMN 200 uM): 67.4 nM; apparent KD of MS2 coat protein (input ligand: none): 38.5 nM

Question: For “GUGCAACAUGAGGAUCACCCAUGUGAGGAUAUGCGAAUUUCAUCAAAAGAUGAAAUUUGCAGAAGGCACAGCAC [Omei Ex1 A13] (Eterna round: R97, puzzle: Exclusion 1)”, which “apparent KD of MS2 coat protein” value (input ligand: FMN 200 uM) is on record?
Answer: 20.5 nM

Question: And the “apparent KD of MS2 coat protein” value (input ligand: none)?
Answer: 15.9 nM

Question: What does the source list for “GUGCCGCGAGGAUAUACAGACGGGUCCAUUACGUGUCUCGGACUUGAGGAUCACCCAAGUAGAAGGCGUCUCGG [salish99_ex2_r4_627] (Eterna round: R97, puzzle: Exclusion 2)”?
Answer: apparent KD of MS2 coat protein (input ligand: FMN 200 uM): 26 nM; apparent KD of MS2 coat protein (input ligand: none): 27.9 nM

Question: For “GUGCGGUGAGGAUAUACGUAGGUGAAAAUCUGUGUGUUCCUACAUGAGGAUCACCCAUGUAGAAGGCAUGGCAC [LRO-Excl2-13] (puzzle: Exclusion 2)”, which “apparent KD of MS2 coat protein” value [3] is on record?
Answer: 90.5 nM

Question: For “GUGGAGGUAGGAUAUCCGCUUCCGGACAUGAGGAUCACCCAUGUUGUUCGGAUUGGACAGGGAGAAGGGCCCACAA [Eternabot (Original) Solution 37] (Eterna round: R97, puzzle: Exclusion 5)”, which “apparent KD of MS2 coat protein” value (input ligand: FMN 200 uM) is on record?
Answer: 44.9 nM

Question: And the “apparent KD of MS2 coat protein” value (input ligand: none)?
Answer: 39.3 nM

Question: For “GUGGAGUAAGGAUAUACAUGAGGAUCACCCAUGUGAGGGUAUGAGAAGGGAAUGAGAGGUAGAAGGUACGAGGA [JR_Exclu3_Sub069] (puzzle: Exclusion 3)”, which “apparent KD of MS2 coat protein” value [2] is on record?
Answer: 108 nM

Question: What about the “apparent KD of MS2 coat protein” value [3] of the same sequence?
Answer: 106 nM

Question: And the “apparent KD of MS2 coat protein” value [4]?
Answer: 186 nM

Question: Which “apparent KD of MS2 coat protein” value [3] does the source give for “GUGGCACAUGAGGAUCACCCAUGUCAGGAUAUCGUGUGUUUUUUUUCGGCCGCGCGCGCGAGAAGGGACGUCUU (puzzle: Exclusion 1)” here?
Answer: 97.8 nM

Question: How did the “apparent KD of MS2 coat protein” value (input ligand: FMN 200 uM) turn out when “GUGGGUCCUCACGGUGCUACAUGAGGAUCACCCAUGUGGAUUGAGGAUAUCGUAACCCUACGGGACGAGAAGGCAGUUUACUGU [Ex NG3 #100] (Eterna round: R96, puzzle: Exclusion NG 3)” was run?
Answer: 48.5 nM

Question: And the “apparent KD of MS2 coat protein” value [1]?
Answer: 14.7 nM

Question: What about the “apparent KD of MS2 coat protein” value (input ligand: none) of the same sequence?
Answer: 23.1 nM

Question: For “GUGGGUUACAUGAGGAUCACCCAUGUAGAGUGGGAAGAGAGAUAGGAUAUGAUGUGAGAAUUAUAUUAGAAGGAUCGAGACUCG [AK ExNG3-2.5] (Eterna round: R96, puzzle: Exclusion NG 3)”, which “apparent KD of MS2 coat protein” value (input ligand: FMN 200 uM) is on record?
Answer: 246 nM

Question: What about the “apparent KD of MS2 coat protein” value [1] of the same sequence?
Answer: 174 nM

Question: And the “apparent KD of MS2 coat protein” value (input ligand: none)?
Answer: 285 nM

Question: With “GUGGUACAUGAGGAUCACCCAUGUUAGGAUAUCGCGUGAGGUUUUACUUCCGCACACACGAGAAGGGACGUCUU (puzzle: Exclusion 1)” as the sequence, how does the “apparent KD of MS2 coat protein” value [3] read?
Answer: 27.7 nM

Question: For “GUGUACAGAGGAUAUACAAGAGGAGUUACGAAAGUAACUUCACAUGAGGAUCACCCAUGUAGAAGGCUGUACAC [Dot plot directed v7] (puzzle: Exclusion 2)”, which “apparent KD of MS2 coat protein” value [3] is on record?
Answer: 21.2 nM

Question: For “GUGUACGGAGGAUAUAUGUGGGCAGGCUGACCUGCAGCUUCACAUGAGGAUCACCCAUGUAGAAGGCUGUACAC [Mat - Exclusion 2 - Mod of Hyphema - D99] (puzzle: Exclusion 2)”, which “apparent KD of MS2 coat protein” value [3] is on record?
Answer: 20.7 nM

Question: How did the “apparent KD of MS2 coat protein” value [3] turn out when “GUGUACGGAGGAUAUAUGUGGGCAGGCUGACCUGCAGCUUCACAUGAGGAUCACCCAUGUAGAAGGCUGUGCAC [JL-ex2-2.08 Brourd mod] (puzzle: Exclusion 2)” was run?
Answer: 16.9 nM

Question: For “GUGUACGGAGGAUAUAUGUGGUGAGCAUACGCUCAAGCUUCACAUGAGGAUCACCCAUGUAGAAGGCUGUGCAC [JL-ex2-2.13 Brourd mod] (puzzle: Exclusion 2)”, which “apparent KD of MS2 coat protein” value [3] is on record?
Answer: 118 nM

Question: Which “apparent KD of MS2 coat protein” value [3] does the source give for “GUGUACGGAGGAUAUGUAUGGGCAGGCUGACCUGCAGCUUCACAUGAGGAUCACCCAUGUAGAAGGCUGUGCAC [JL-ex2-2.09 Brourd mod] (puzzle: Exclusion 2)” here?
Answer: 10.7 nM

Question: Which “apparent KD of MS2 coat protein” value [3] does the source give for “GUGUACGUAGGAUAUACAUGAGGAUCACCCAUGUGAAUAAGAUAGAAUAAGAUAAAGUGUAGAAGGACGAGUGU [Excluse me!!! 6 - Jieux - Exclusion 3] (puzzle: Exclusion 3)” here?
Answer: 30.4 nM

Question: For “GUGUAGACAGGAUAUGCUUUGAGCAUAUGAGAGUAUGCUCUACAUGAGGAUCACCCAUGUAGAAGGGUCUACAC [LRO-Excl2-01] (puzzle: Exclusion 2)”, which “apparent KD of MS2 coat protein” value [3] is on record?
Answer: 11 nM

Question: With “GUGUAGAUAGGAUAUGCGUGAGUCUAGCGAAGCUAGGCUCUACAUGAGGAUCACCCAUGUAGAAGGGUCUACAC [Dot plot directed A v14] (puzzle: Exclusion 2)” as the sequence, how does the “apparent KD of MS2 coat protein” value [3] read?
Answer: 17.3 nM

Question: With “GUGUAGCAAGGAUAUACAUGAGGAUCACCCAUGUGAAUAAGAUAGAAUAAGAUAAAGUGUAGAAGGUGUAGUGU [Excluse me!!! 10 - Jieux - Exclusion 3] (puzzle: Exclusion 3)” as the sequence, how does the “apparent KD of MS2 coat protein” value [3] read?
Answer: 37.2 nM

Question: What does the source list for “GUGUAGUAAGGAUAUAGAAAGAGGGAGUAAGAUAGAGAGUUCUAGAAGGUACAUGAGGAUCACCCAUGUUGGAG [JR_Exclu4_Sub082] (puzzle: Exclusion 4)”?
Answer: apparent KD of MS2 coat protein [2]: 24.9 nM; apparent KD of MS2 coat protein [3]: 28.9 nM; apparent KD of MS2 coat protein [4]: 27.8 nM

Question: What does the source list for “GUGUAGUGAGGAUAUACAUGAGGAUCACCCAUGUGAAUAAGAUAGAAUAAGAUAAAGUGUAGAAGGCACAGUGU [Excluse me!!! 3 - Jieux - Exclusion 3] (puzzle: Exclusion 3)”?
Answer: apparent KD of MS2 coat protein [2]: 39.5 nM; apparent KD of MS2 coat protein [3]: 35.7 nM; apparent KD of MS2 coat protein [4]: 41.9 nM

Question: How did the “apparent KD of MS2 coat protein” value [3] turn out when “GUGUAGUUAGGAUAUGCUGGAAUCUAGCGAAGCUAGGUUCCACAUGAGGAUCACCCAUGUAGAAGGGACUACAC [Dot plot directed A v10] (puzzle: Exclusion 2)” was run?
Answer: 168 nM

Question: For “GUGUGCACGCUGCGAUCCUACAUGAGGAUCACCCAUGUGGUCUGGUGGCGUGGGUCACCGGACUUGGCUCGUCUUGC [salish99_S_TOV1_R5_072] (Eterna round: R97, puzzle: Sensor, turn-off variant 1)”, which “apparent KD of MS2 coat protein” value (input ligand: FMN 200 uM) is on record?
Answer: 35.6 nM

Question: And the “apparent KD of MS2 coat protein” value (input ligand: none)?
Answer: 35.8 nM
